Results on 22 sequences are retold here after the DeepSol protein solubility set.

The nature of the data set: soluble on expression in E. coli; label from the status in PepcDB or PDB records.
For the sequence “SNAMTDAVLELPAATFDLPLSLSGGTQTTLRAHAGHWLVIYFYPKDSTPGATTEGLDFNALLPEFDKAGAKILGVSRDSVKSHDNFCAKQGFAFPLVSDGDEALCRAFDVIKEKNMYGKQVLGIERSTFLLSPEGQVVQAWRKVKVAGHADAVLAALKAHAKQ”, the “soluble on expression in E. coli” value is “soluble”.

For the sequence “MKASIKGKYDTDKTSGIGSLAFNAGDIKLRATMTDATLVAGPTLTGLALAVEKPGSFIVEYNVPKKDVRFQFMNTVRIAEKPLNLTYIHSRADNRTIVDGSLVIDSANKLSANHMVGTNNCKIKYTYAHGGLATFEPCYDLAKNTWDFAVSRRFYSGDNVRATYQTSSKLLGMEWSRNNKASGFKVCASVNLADELKTPKLTAETTWNLEM”, the “soluble on expression in E. coli” value is “soluble”.

As to “MERHVPEPTHTLEGWHVLHDFRLLDFARWFSAPLEAREDAWEELKGLVREWRELEEAGQGSYGIYQVVGHKADLLFLNLRPGLDPLLEAEARLSRSAFARYLGRSYSFYSVVELGSQEKPLDPESPYVKPRLTPRVPKSGYVCFYPMNKRRQGQDNWYMLPAKERASLMKAHGETGRKYQGKVMQVISGAQGLDDWEWGVDLFSEDPVQFKKIVYEMRFDEVSARYGEFGPFFVGKYLDEEALRAFLGL”, the “soluble on expression in E. coli” value is recorded as “soluble”.

Consider “MHHHHHHMSWNHQSVEIAVRRTTVPSPNLPPGFDFTDPAIYAERLPVAEFAELRSAAPIWWNGQDPGKGGGFHDGGFWAITKLNDVKEISRHSDVFSSYENGVIPRFKNDIAREDIEVQRFVMLNMDAPHHTRLRKIISRGFTPRAVGRLHDELQERAQKIAAEAAAAGSGDFVEQVSCELPLQAIAGLLGVPQEDRGKLFHWSNEMTGNEDPEYAHIDPKASSAELIGYAMKMAEEKAKNPADDIVTQLIQADIDGEKLSDDEFGFFVVMLAVAGNETTRNSITQGMMAFAEHPDQWELYKKVRPETAADEIVRWATPVTAFQRTALRDYELSGVQIKKGQRVVMFYRSANFDEEVFQDPFTFNILRNPNPHVGFGGTGAHYCIGANLARMTINLIFNAVADHMPDLKPISAPERLRSGWLNGIKHWQVDYTGRCPVAH”, for which the “soluble on expression in E. coli” value is listed as “soluble”.

Consider “MSLNTGHASLAQWGMSCLQWQPEWSVLDIGCGGGANLLQILQRCPQGKAYGIDISPESVTFARKKNKKYLGTRCFIEQGGVHRLPYPDYAFDAVTAFETVYFWGNLQHAFTEVARVLKPGGSFLICCEISDPANKAWTGLVEGMEIHSCDELKAILSKSGFTDTAIFRTKKEELCLVSHRQTVRLEGHHHHHH”, for which the “soluble on expression in E. coli” value was “soluble”.

As for “MGSDKIHHHHHHMGTIWPDSLPQSKGAKYTLVADVIRKAIDTKELEVGVKLPPVRELAYKLGITPGTVARAYTILTDEGLLNAEVGRGTFVAPPKRPVLDDVWSRQLYLLDERDDDNVSLFSPRLADMGQVALIRECLQKVAQGDPAMFLNYPTRDAYAGVRQAVVDWMSDLSLGPLTADDIVLTHGGQSGLCVVFQTVFKGPKPVVLVEDLSYAGFRRAAELMRADVIGVRMDKWGIDPMSLDLTARQSPAQAICVSPEVQNPTGSRSPLERRKEVVEVARKHDLQIIEDDCYRMGEPQAPSYRALAPERGWHVSSVSKTLTPALRVGFAIAPEGQSAGLRRSAEYGYFGLAQPLAELTRLMLSDPRARDLARAVQRRMAEYVRVTVNTLGGFDLVWDSAVPFVWLRLPSGWRSAAFTRAAERAGVQVRSADEFALRDGRAPNAVRIAMNAHVSLERFETAMVRLRALLDNPPEQISV”, the “soluble on expression in E. coli” value is “not soluble”.

Turning to “MAHHHHHHMMRCSRGCRRQLRPYYNLPSKSDHGRKMTGFLTPYRHWMWKQNELWRNVHEAQFEHLRKVYKRQWLESFRVNADEYIYKYNITKAAQLAQWEYEMQAQEKKRLEAKQMTEGRQALKKKHLDLLREFHERQFFFWYERASERLQSMNLIQYIPQSRVQEHIERELDKYVAGKSEAYPLNFVGQMPLVEDREGNIVEVPEGLLTNHVSEHPESTVKPHQPHESTSVSVEEQLLRTMASAREESLEEWIDDSRALSETIDDISREEEQRDEDTRVARSMEETDNEREISRRMYIDRGKTGSKAIFRRPTLSETDGGSASIPVGGVAASPADTSAPMRRRKKGKLDKAHALQEQQDAMIARMSAKSLKDGESSISIVKRGEIATSRGRIRDKAAIPTQEVLMQKPELAAGSVPNARISFKDKVDQLYHRGKYKQKKEDDNNPNEDL”, the “soluble on expression in E. coli” value is reported as “not soluble”.

On to “AQDMVSPPPPIADEPLTVNTGIYLIECYSLDDKAETFKVNAFLSLSWKDRRLAFDPVRSGVRVKTYEPEAIWIPEIRFVNVENARDADVVDISVSPDGTVQYLERFSARVLSPLDGRRTESDSQTLHIYLIVRSVDTRNIVLAVDLEKVGKNDDVFLTGWDIESFTAVVKPANFALEDRLESKLDYQLRISRQGGHHHHHH”, for which the “soluble on expression in E. coli” value is reported as “soluble”.

As for “MTDQQRRVVFMATSLLLDYPDDRWEDIIDAVSVQIDDLPKNTRQQFVQFLTAVRVMGRRGMEQHYVECFDQRRRCSLFLSYYAVGDTRQRGAAILAFQESLETLGFFLEREELPDHLCVVLEVAAKAEGLAHHVATDMLAAHRDGIEVLRVALEHSDSPYSRLVAAVCSALPDIDEETRKNFVDLIRSGPPAELIGIESPLPFPTATNV”, the “soluble on expression in E. coli” value is given as “not soluble”.

For the sequence “MSLRLGIILHGVTGRMGYNQHLVRSVLAIRDQGGIMLKSGGRLEIDPIIVGRNRDKIEQLAKRHDIARWSTDLDAALADPNDQIFFDAGTTLMRAELIGRALDAGKHVYCEKPVSDDLRTAVKLARKARASGLKHGVVQDKLFLPGLQKLALLRDSGFFGKILSVRGEFGYWVFEGDWGVPAQRPSWNYRKKDGGGIILDMLCHWRYVLDNLFGEVKAVSCLGATHISSRIDEQGRAYDCDTDDAAYATFELEGGVIAQINSSWTVRVRRDDLVTFQVDGTHGSAVAGLTKCWTQHRVNTPKPVWNPDQPQTIDFYETWDEVPDTQAFDNGFKAQWEMFLRHVAEDSPWPYGLEAGAKGVQLAELGLKSWAERRWLDVPELEEGHHHHHH”, the “soluble on expression in E. coli” value was “soluble”.

For the sequence “MNTVRWNIAVSPDVDQSVRMFIAAQGGGRKGDLSRFIEDAVRAYLFERAVE”, the “soluble on expression in E. coli” value was “soluble”.

Turning to “SMAAAAVVQIPAGATFLETFKKSFVDVPIDAEKGNAISTAEFLEAAESLTTMFDVLGSIAFSPVKTDMLGNVEKIRKRMLAAPLESQNIQDLVRNELKTKSHTATEGLLWLVRGLEFTCIALSKNIGSTEELADSFRGSYRVTLKPHHSFLVKPIFSAAMSACPYRKDFYAKLGDDEQKVQEELREYLVALDKIVNILKRFLESKEAKW”, the “soluble on expression in E. coli” value is listed as “soluble”.

With “MISVCIATYNGEKYLAEQLDSILLQVSEEDELIISDDGSTDHTLEILRTYAANYPQIQLLQGPGQGVIANFAFALTHTKGEVIFLADQDDVWLPNKVTTVTEYFETHPDIQVVISDLKIVDADLQVTNPSYFKFRKVKPGFWRNAIKSGYIGAGMAFRQEMKNVILPIPPEVPMHDMWIGLLAARKKQTGLIKEPLVLYRRHGANVSPIITKTSFQQKLNWRVNLLKALHQRLKEQRLEHHHHHH”, the “soluble on expression in E. coli” value is listed as “soluble”.

With “MAKYTREDIEKLVKEENVKYIRLQFTDILGTIKNVEIPVSQLGKALDNKVMFDGSSIEGFVRIEESDMYLYPDLNTFVIFPWTAEKGKVARFICDIYNPDGTPFEGDPRNNLKRILKEMEDLGFSDFNLGPEPEFFLFKLDEKGEPTLELNDKGGYFDLAPTDLGENCRRDIVLELEEMGFEIEASHHEVAPGQHEIDFKYAGAVRSCDDIQTFKLVVKTIARKHGLHATFMPKPLFGVNGSGMHCNLSLFKNGVNAFFDENADLQLSETAKHFIAGIVKHATSFTAVTNPTVNSYKRLVPGYEAPCYVAWSAQNRSPLIRIPASRGISTRVEVRSVDPAANPYLALSVLLAAGLDGIKNKLEAPAPIDRNIYVMSKEERMENGIVDLPATLAEALEEFKSNEVMVKALGEHLFEHFIEAKEIEWDMFRTQVHPWEREQYMSQY”, the “soluble on expression in E. coli” value is recorded as “not soluble”.

On to “MSLGYQYDTLIYNVRIASMQDNKLPYGELPPHAIAIKDGKIAALLPCDDSLDDVFEQAKSVIDATTLIPQNEGSTPKPPWLLPGFIDCHTHLVYGGNRAEEFEMRLQGASYVDIAQRGGGIKGTVEKTRCSDENTLLHTAIKRAKRLCEEGVTTIEVKSGYGLDLDTEVRMLRVAKSLEQHLPVSIKTTYLGAHALPNEFADDSEGYIDFICNEALPHIASQNLADAVDVFCETIGFSTSQTERVFSCAQQHGLPIKAHVEQLSDSKGAVLAAKYGALSVDHIEYLADSDIPLLAQSGTVAVLLPGAFYYLSEVQKPPVDALRAHNVPMALATDFNPGSSPLASILTAINMGCVLFQLTPEEALRGATAHAASALGLHDRGVIEAGKLADLTLWDIETPAELAYCINGHRPIAVFKEGKHVEGHHHHHH”, for which the “soluble on expression in E. coli” value is on record as “soluble”.

Regarding “MKRYTPDFPEMMRLCEMNFSQLRRLLPRNDAPGETVSYQVANAQYRLTIVESTRYTTLVTIEQTAPAISYWSLPSMTVRLYHDAMVAEVCSSQQIFRFKARYDYPNKKLHQRDEKHQINQFLADWLRYCLAHGAMAIPVY”, the “soluble on expression in E. coli” value is listed as “not soluble”.

Regarding “MEKLRIKGMSYTMCSGKFSIDKEMAETQHGTTVVKVKYEGAGAPCKVPIEIRDVNKEKVVGRIISSTPLAENTNSVTNIELEPPFGDSYIVIGVGNSALTLHWFRKGSSIGK”, the “soluble on expression in E. coli” value is “soluble”.

As for “MILAVLQARMGSSRLPGKSMATLQGEPMIVRQLERLRGARCLSKIIVATSQDPADDALAGFLVSRGNTVHRGAGADILARIARCADAISAVSHVVRLKGDAPFMDPGVVDDAVRMALASGADYTSNRVHRTYPAGLEVEVIKAGVLRQAAAEERDPTARISPTAAIRNQPERWRQAHLRAARDCSRLDWRVKTAADLAFARSVYDALHPGDPDFRMGDVLDLLENRQDIARFAALEHHHHHH”, the “soluble on expression in E. coli” value is “not soluble”.

In the case of “MSQANANFLDNSKVSANKTAESGQLKEFRTPPHNLAIEQAVLAALMTVAESFEQVNDLLKENDFYATRHKYIFRAIEKLAQENSPYDAVLVNDWLLKQNLLDAIGGEEYLMQLMADSPSSFYNLETYASKIKEFSTLRSMIKVSSDILQNAYDTKGRPVSEILDLAETSIFSLAEQHNNNKKDAGPKSISSVTADVISKLDELSKLDGNITGLTTGFLELDNKTYGMQSGDMIIVAARPSMGKTTFAMNLVESVLFNCNLPALVFSMEMPADSIAMRLISSYGKVHQGHLRSGKLDGDEWSKVTGTILQLQEKHLYIDDSSALPPTELRARARRIAKQHGGKLGCIMIDYLQLMKVPGMGDNRVGEIGEISRSLKALAKEMDCPVIALSQLNRSLENRPNKRPVMSDLRESGAIEQDADLIMFIYRDEVYNKESKEAGTAEIIIGKQRNGPIGTVRLAFEGQYTRFSNLSPEYYSQYDDEE”, the “soluble on expression in E. coli” value is listed as “not soluble”.

For “MDQGMFYLSAAYIVKTMISGGNLLKEYIEERAVAIANYIIDYNATVRQTARKFGISKSTVHKDVTDRLENINPSLAAQARVVLDINKAERHIRGGMATKEKYQHQLQACSRK”, the “soluble on expression in E. coli” value is “not soluble”.

“MSLSNDYPLVSIIIPTYNSSDYITETLTKLEKQTYPNFEIVIVNDGSKDNTSSVLREYGLTHSRLIIINKENGGVSSARNTGIRKAQGQFICFMDDDDEIDPNYLLKMYSRQHETGGDAIYCGLYGHHIKNGVTYSPINTDFNEGSLLFDFFYKKVRFHIGCLFIRKQLLEDNNLFFDEDLRLGEDLDFIYRLLITCDMYAVPYYMYKHNYRENSLMNSCRTITHYRHESFAHERIYSSVMQLYKGNRKEEIHTLLSKNRTYHKTRYLWNVLLNGDFELLNQLVESNEKELKDCNLLGKRDKRRAKILASKNYILWRMVRLVNRKKNKEGHHHHHH”: the “soluble on expression in E. coli” value is “soluble”.

For “MIVLETERLNLRWFDIKDAPFILELVNDPAWIQFIGDKGVRNLEDAKNYIVNGPIDMYNKLRFGLYLVERKEDLTPLGMCGLIKRDSLEDVDIGFAFLETFRSKGYGYESASAIIEYGVQKLGMKRIVAITSIDNIASGKLLEKVGLRFEKIISDSGEDLKLFGYNA”, the “soluble on expression in E. coli” value is “not soluble”.
